# Test results from US20120237614A1, “PEPTIDE ABLE TO DISRUPT THE PROTEIN COMPLEX BETWEEN THE HIS273 MUTADED P53 PROTEIN AND THE ONCOSUPPRESSIVE P73 PROTEIN IN TUMOR CELLS AND THERAPEUTIC USES THEREOF” (priority 2009, published 2012).
# Entries after “also recorded” stand apart in the source; their conditions may differ.
# Assays:
# m-p53His-273/p73 complex = target: T1, m-p53His-273/p73 complex (Homo sapiens, UniProt P04637, R273H); assay: Coprecipitation (immunoprecipitation) test of the m-p53/p73 complex in MDA-MB-468 cells; type: cell-based; conditions: His-273 mutation, peptide 20 μM, anti-p73 immunoprecipitation
# T1 construct: Total cellular lysates (1 mg), have been immunoprecipitated with antibodies directed against p73; endogenous in cells; host or cells: MDA-MB-468
# Description: (A) MDA-MB-468 (5×10^5) cells have been transfected using a lipofectamine containing mixture, βgal expression vector, which normalizes transfection efficiency, and SIMPI peptide (20 μM). Total cellular lysates (1 mg), have been immunoprecipitated with antibodies directed against p73 and immunoglobulins (IgG). Immunoprecipitates and an aliquot (50 μg) of total lysate after 12% acrylamide gel electrophoretic run have been transferred on nitrocellulose membrane and labelled with antibodies shown in the figure. (B) MDA-MB-468 cells, have been transfected using SIMP1 and SIMP5,6. peptides. Successively, cells have been washed and stimulated with 3 μM Adriamycin. Total obtained lysates (30 μg) have been assayed for the expression of PARP and BAX apoptotic proteins. Lysate has been normalized by assaying γ-tubulin expression. (C-D). Transactivation tests have been carried out by transient transfection of H1299 cells using a mixture containing lipofectamine, SIMP1, SIMP5,6 indicated plasmids (20 μM each) together with pLUC-BAX reporter vector. To each reaction mixture an equal amount of […] expression vector was added, in order to normalize the transfection efficiency.
# The cell extracts have been processed in a lysis buffer containing 50 mm Tris HCl pH 8, 100 mM NaCl, 10% glycerol, 1% Triton X-100, 1 mM EDTA, 100 mM NaF, MgCl2, 1 mM PMSF, protease and phosphatase inhibitors. Then extracts have been sonicated and centrifuged at 14.000 rpm for 10 min for the debris removal.
# 50 μg of solubilised proteins have been separated by electrophoresis on 10 or 15% SDS-polyacrylamide gel. Western blot analysis has been carried out using anti-p53 primary antibodies (DO1 Calbiochem), rabbit anti-PARP, rabbit polyclonal anti-Bax, anti-p21 and anti-tubulin monoclonal antibodies (Calbiochem). […] Immunolabelled lanes have been detected using chemiluminescence analysis (Pierce). […]
# In order to evaluate the activity of SIMPI peptide and SIMP1KO and SIMP1M derivatives the ability in disrupting the oncogenic m-p53His-273/p73 complex has been analysed.
# mutp53 His-273 protein = target: T2, mutp53 His-273 protein (Homo sapiens, UniProt P04637, R273H); assay: Dot immunobinding test with total cell extracts; type: binding; conditions: total extracts 1 mg, peptide on nitrocellulose membrane
# T2 construct: Total extracts deriving from SKBR3, (His-175) HT29, (His-273) and H1299 (p53 free) tumour cells; endogenous in cells; host or cells: HT29 total cell extract
# Description: (A) Total extracts deriving from SKBR3, (His-175) HT29, (His-273) and H1299 (p53 free) tumour cells have been incubated (1 mg) on SIMP1 and SIMPIKO peptide labelled nitrocellulose membrane and Dot Blot analysed. In (B) the membranes have been incubated with 20 μg of wild type WT GST-p53 purified protein or GST-p53 His-175, GST-p53-His-175, 74-298 or GST alone. In both experiments dots have been detected by labelling the membranes with anti-p53 (DO1) antibody
# Nitrocellulose membranes have been cut, washed with water and blotted on the paper filters. The peptides at 250 mM concentration have been transferred on membrane. Labelled membrane has been washed for 10 min. with TBST buffer (10 mM Tris-HCl pH 7.4, 150 mM NaCl, 0.05% (v/v) Tween-20) and then blocked for 45 min with TBST/5% milk. Then the membranes have been incubated for 6 hours at 4° C. in shaker with 1 mg of total protein extract or 20 μg of GST fusion purified proteins. Successively the membranes have been washed with TBST buffer and decorated with anti-p53 antibody (DO1) as a primary antibody. As secondary antibody horse peroxidase conjugated goat antibody has been used. Immunolabelled lanes have been detected using chemiluminescence analysis (Pierce).
# The membranes decorated with SIMP peptides also have been incubated with GST-p53 His175, GST p53His74-298, GST WTp53 fusion proteins, GST control.
# [1] = test system: MDA-MB468 breast and HT29 colon carcinoma cell lines; assay: Cell viability / proliferation assays after peptide transfection; type: cell-based, human; conditions: peptide transfected cells
# Description: (A) In order to verify the SIMPI peptide specificity, independently from the cellular context, we tested SIMP1 peptides in some Adriamicyn treated colon carcinoma HT29 (His-273). cell lines. The cells have been transfected using a mixture containing lipofectamine, pLUC-BAX plasmid, β-galactosidase expression vector, SIMP1 and SIMP5M control peptides. 24 hours post-transfection, have been treated with 3 μM Adriamicyn. (B-C). Viability and inhibition assays have been carried out after transfection using SIMP1 and SIMP5M peptides in HT29 (colon cancer) and MDA-MB-468 (breast cancer) cell lines
# Cell viability has been tested using Trypan Blue exclusion assays.
# We observed a reduction of cell proliferation in MDA-MB468 breast and HT29 colon carcinoma cell lines.
# HT29 cells = assay: In vivo tumorigenicity test (xenograft of peptide transfected HT29 cells); conditions: naked mice, s.c. 5×10^5 peptide transfected cells/mouse, 5 weeks
# Description: In order to assay SIMP1 in vivo antitumor activity nu/nu […] mice were administered subcutaneously with SIMP1, SIMP1KO and SIMP5M transfected HT29 cells (5.0×10^5 cells/mouse). Tumour growth has been monitored over 5 weeks.
# Xenograft assays have been carried out by administration to naked mice subcutaneous injections containing 5×10^5 cells/mouse of SIMP1, SIMP1KO and SIMP5M peptide transfected colon and rectum tumour human cell line (nu/nu CD1 Charles River mice). The tumour growth together with animal body weight is monitored for 5 weeks in order to estimate the chronic toxicity
# The experiments have been carried out by administration to naked mouse (nu/nu CD1 Charles River mice) subcutaneous injections containing 5×10^5 cells/mouse. The tumour growth has been monitored together with animal body weight for 5 weeks in order to estimate possible not occurred chronic toxic effects (FIG. 5).
# [2] = test system: tumour cell lines containing His-175 or His-273 p53 mutation; assay: Summary of activity by p53 mutation type; type: cell-based; conditions: FIG. 6 summary
# Excerpt: SIMP1M: FQQSSTARSATW (SEQ ID NO:16) (MW: 1369, PI: 9.75) peptide is a mutated version of SIMP1 peptide wherein K138 residue has been replaced by Arginine.
# FIG. 6 that SIMP peptides and by-products thereof displace protein complexes involving mutated protein p53 and p73.
sequence,measurement,setting,value
FQQSSTAKSATW (p73 SIMP (aa 131-142)) [SIMP1],disruption of m-p53 His-273/p73 protein complex (p73 bound m-p53 amount),m-p53His-273/p73 complex,suitable to disrupt m-p53/p73 complexes in tumour cells containing his-273 mutation; also recorded: disrupt selectively m-p53/p73 complex
same,disruption of m-p53 His-273/p73 protein complex (p73 bound m-p53 amount),m-p53His-273/p73 complex; listed as SIMPI,disrupts mutated p53/p73 protein complex; also recorded: largely reduced
same,"direct binding to mutp53 His-273 (dot blot, anti-p53 DO1)",mutp53 His-273 protein,binds directly the mutp53 His-273 protein
same,cell proliferation in vitro,[1],reduce the cell proliferation in vitro
same,tumour growth (tumour size) in vivo,HT29 cells,tumour growth is decreased; also recorded: meaningful reduction of the growth (tumour size)
same,specificity for p53 mutation type,[2],display specificity for His-273 mutation containing tumours
